Experimental data reported in US20240209088A1 (NMI NATURWISSENSCHAFTLICHES UND MEDIZINISCHES INSTITUT AN …, published 2024).

T1: murine CD4 on mouse CD4+ cells (mouse, UniProt P06332 27-457)
T1 construct: whole, on cells; also called murine CD4+ lymphocytes
T1 sequence (looked up): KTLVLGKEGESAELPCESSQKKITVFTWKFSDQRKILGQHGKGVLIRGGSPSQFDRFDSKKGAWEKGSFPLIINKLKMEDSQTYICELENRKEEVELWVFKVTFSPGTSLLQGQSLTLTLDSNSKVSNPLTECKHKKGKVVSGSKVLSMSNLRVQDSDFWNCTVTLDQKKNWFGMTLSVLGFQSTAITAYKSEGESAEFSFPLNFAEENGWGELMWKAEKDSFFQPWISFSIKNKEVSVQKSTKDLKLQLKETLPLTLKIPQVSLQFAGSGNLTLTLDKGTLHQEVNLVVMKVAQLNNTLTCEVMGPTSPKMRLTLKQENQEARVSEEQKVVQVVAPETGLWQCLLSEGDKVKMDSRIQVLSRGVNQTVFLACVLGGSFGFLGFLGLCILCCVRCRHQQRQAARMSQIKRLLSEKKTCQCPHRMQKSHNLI


What was measured:
[1] = target: T2, recombinant extracellular portion of human CD4 (domains D1-4) (human, UniProt P01730 26-396, for BLI biotinylated with 3-fold molar excess of biotin-N-hydroxysuccinimide ester; not biotinylated in HDX-MS); assay: biolayer interferometry, biotinylated hCD4 immobilized on streptavidin biosensors
T2 construct: extracellular domain; also called recombinant hCD4; extracellular domain of hCD4
Protocol: (§1) (D) For biolayer interferometry-based affinity measurements, biotinylated hCD4 was immobilized on streptavidin biosensors.
(§2) To determine the binding affinity of purified Nbs to recombinant hCD4, biolayer interferometry (BLItz, ForteBio) was performed. First, CD4 was biotinylated by 3-fold molar excess of biotin-N-hydroxysuccinimide ester. CD4 was then immobilized at single-use high-precision streptavidin biosensors (SAX) according to manufacturer's protocols. […] As a reference run, PBS was used instead of Nb in the association step. […] Recorded sensograms were analyzed using the BLItzPro software and dissociation constants (KD) were calculated based on global fits.

[2] = target: T2, recombinant extracellular portion of …; assay: BLI (affinity constants predetermined by BLI analysis)
Protocol: as §2

[3] = target: T3, full-length human CD4 on cells (human, UniProt P01730 26-458); assay: flow cytometry on cells expressing hCD4
T3 construct: whole, on cells; Stably expressed (CHO-hCD4, HEK293-hCD4) or endogenous (PBMCs, human CD4+ cells from blood, HPB-ALL, T cell lines); also called hCD4; cell-resident hCD4
Protocol: (§3) (E) EC₅₀ determination by flow cytometry.
(§4) For each staining condition 200,000 cells were incubated with suitable dilution series of CD4 nanobodies at 4° C. for 30 min. Cells were washed two times and for detection Cy5 AffiniPure Goat Anti-Alpaca IgG, VHH domain (Jackson ImmunoResearch) was applied for 15 min. […] Final data analysis was performed via FloJo10® software.

[4] = target: T3, full-length human CD4 on cells; assay: flow cytometry, percentage of positively stained hCD4-expressing cells against Nb concentration, four-parametric sigmoidal model
[5] = target: T2, recombinant extracellular portion of …; assay: BLI, biotinylated extracellular domain of hCD4 on streptavidin sensor, serial dilutions of Nb
Protocol: as §2
(§5) To quantitatively assess affinities, biolayer interferometry (BLI) measuring serial dilutions of Nbs were performed on the biotinylated extracellular domain of hCD4 immobilized at the sensor tip.

[6] = target: T3, full-length human CD4 on cells; assay: live-cell immunofluorescence of CHO-hCD4 cells, unlabeled Nb detected with anti-VHH Cy5 secondary antibody
[7] = target: T3, full-length human CD4 on cells; assay: flow cytometry, percentage of positively stained hCD4-expressing cells against Nb concentration, four-parametric sigmoidal model; the curve rises only to about 3 % at the highest concentration near 10^-4.5 M
[8] = target: T2, recombinant extracellular portion of …; assay: BLI
[9] = target: T2, recombinant extracellular portion of …; assay: biolayer interferometry on human CD4; the sheet prints Conc: 0.625 - 5 nM, four sensorgrams up to about 0.17 nm
[10] = target: T2, recombinant extracellular portion of …; assay: BLI, biotinylated extracellular domain of hCD4 on streptavidin sensor, serial dilutions of Nb; BLI on biotinylated extracellular domain of hCD4 at the sensor tip
Protocol: as §2, §5

[11] = target: T3, full-length human CD4 on cells; assay: flow cytometry on HEK293-hCD4 cells, detection with anti-VHH Cy5 antibody; flow cytometry, full-length hCD4 on HEK293-hCD4 cells
[12] = target: T3, full-length human CD4 on cells; assay: flow cytometry, percentage of positively stained hCD4-expressing cells against Nb concentration; the subscript is redrawn as 56, EC50 by the legend paragraph 99
Protocol: as §3, §4

[13] = target: T2, recombinant extracellular portion of …; assay: biolayer interferometry, biotinylated hCD4 immobilized on streptavidin biosensors, four Nb concentrations; the subscript is redrawn as O, KD by the legend paragraph 99
Protocol: as §1, §2

[14] = target: T3, full-length human CD4 on cells; assay: in vitro radioimmunoassay on HPB-ALL cells (data not shown)
[15] = target: T1, murine CD4 on mouse CD4+ cells; assay: flow cytometry of mouse CD4+ cells from spleen and lymph nodes
[16] = target: T4, hCD4 domain-deletion mutant lacking domains D1 and D2 (CD4_ΔD1ΔD2) (human, UniProt P01730 26-458); assay: live-cell immunofluorescence of CHO cells transiently expressing the domain-deletion mutant, CF568-labeled Nb
T4 construct: whole, on cells; Transiently expressed in CHO wt cells; also called pcDNA3.1_CD4_ΔD1ΔD2_IRES-eGFP

[17] = target: T5, hCD4 domain-deletion mutant lacking domain D1 (CD4_ΔD1) (human, UniProt P01730 26-458); assay: as above
T5 construct: whole, on cells; Transiently expressed in CHO wt cells; also called pcDNA3.1_CD4_ΔD1_IRES-eGFP

[18] = target: T2, recombinant extracellular portion of …; assay: biolayer interferometry, biotinylated hCD4 immobilized on streptavidin biosensors; box in the panel prints [CD4_Nb1]: 15.625-125 nM
Protocol: as §2

[19] = target: T3, full-length human CD4 on cells; assay: flow cytometry on HEK293-hCD4 cells, detection with anti-VHH Cy5 antibody
Protocol: For each staining condition 200,000 cells were incubated with suitable dilution series of CD4 nanobodies at 4° C. for 30 min. Cells were washed two times and for detection Cy5 AffiniPure Goat Anti-Alpaca IgG, VHH domain (Jackson ImmunoResearch) was applied for 15 min. […] After two washing steps, samples were resuspended in 200 μl FACS buffer and analyzed with a BD FACSMelody Cell Sorter. Final data analysis was performed via FloJo10® software.
In addition, corresponding EC50 values were determined with full-length plasma membrane-located hCD4 on HEK293-hCD4 cells by flow cytometry.

Binder | koff [1] [s⁻¹] | kon [1] [M⁻¹ s⁻¹] | Kd [2] [nM] | EC50 [3] [nM] | Kd [5] [nM] | also measured
CD4-Nb3 (VHH, Unlabeled, expressed in E. coli) VHH: HVQLVESGGGLVQPGGSLRLSCAVSGFALEYYAIGWFRQAPGKERERVACMSASGGVINYSESVKGRFTISRDNAKNTVYLQMNTLKPEDTAVYYCAAEKAYYGSSWAECYLMMDYWGKGTLVTVSS | 0.00618 | 82000 | 75.3 | 533 | 75 | EC50 [4]: 533 nM
CD4-Nb5 (VHH, Unlabeled; excluded from further analyses after the live-cell staining) VHH: EVQLQESGGGLVQAGGSLRLSCKVSGRTFGTYAMGWFRQAPGKEREFVAVISWIKGNTYVADSVLGRFTISRDNARNWLHLQMYSLKPEDTATYYCAASSTVTLPTTLDPYTYWGQGTPVTVSS | – | – | – | – | – | binding result [6]: no binding (tested: not printed on the sheet)
CD4-Nb4 (VHH, Unlabeled, expressed in E. coli) VHH: EVQLQESGGALAQPGGSLRLSCAVSGFTFGTYGMGWLRQAPGKGREFVAAINWIHGGEIYADSVKGRFTISKDNAKNTLYLQMDSLKPEDTAVYYCAARSGTSLYTGVDEYQYWGQGTQVTVSS | 0.016 | 118000 | – | 7360 | 135 | EC50 [7]: 7360 nM
mutant CD4-Nb1 (all lysine residues replaced with arginine residues) (VHH, Expressed in bacteria; also called mutant nanobody; mutant version of the nanobody) VHH: EVQLVESGGGLVQPGGSLRLSCAASGFTFSRLAMSWHREPPGRGREWLADIDSSGDTTDYLASVRGRFTISRDNARNTLYLQMDSLRSEDTGVYYCASREDPPGYWGQGTQVTVSS | – | – | – | – | – | Kd [8]: ~1 nM; Kd [9]: 1 nM
CD4-Nb1 (VHH, Unlabeled, expressed in E. coli; also called non-mutated CD4-Nb1) VHH: EVQLVESGGGLVQPGGSLRLSCAASGFTFSKLAMSWHREPPGKGREWLADIDSSGDTTDYLASVKGRFTISRDNAKNTLYLQMDSLKSEDTGVYYCASREDPPGYWGQGTQVTVSS | 0.000613 | 121000 | 5.1 | 0.74 | – | Kd [10]: ~5 nM; EC50 [11]: ~0.7 nM; EC50 [12]: 0.74 nM; Kd [13]: 5.09 nM
^64Cu-CD4-Nb1 (VHH, azide-coupled C-terminus reacted with BCN-NODAGA and radiolabeled with 64Cu, also called ^64Cu-hCD4-Nb1) VHH: EVQLVESGGGLVQPGGSLRLSCAASGFTFSKLAMSWHREPPGKGREWLADIDSSGDTTDYLASVKGRFTISRDNAKNTLYLQMDSLKSEDTGVYYCASREDPPGYWGQGTQVTVSS | – | – | – | – | – | fold over the non-specific binding to CD4-negative DHL cells or of the 64Cu-GFP-Nb control [14]: ~30 times
CD4-Nb1-Cy5.5 (VHH, C-terminus sortase-coupled to H-Gly-Gly-Gly-propyl-azide, then click-labeled with DBCO-Cy5.5, also called hCD4-Nb1-Cy5.5; Cy5.5-labeled CD4-Nb1) VHH: EVQLVESGGGLVQPGGSLRLSCAASGFTFSKLAMSWHREPPGKGREWLADIDSSGDTTDYLASVKGRFTISRDNAKNTLYLQMDSLKSEDTGVYYCASREDPPGYWGQGTQVTVSS | – | – | – | – | – | binding result [15]: no binding
CD4-Nb1 sortase-coupled to the fluorescent dye CF568 (VHH, C-terminus sortase-coupled to the CF568-coupled peptide H-Gly-Gly-Gly-Doa-Lys-NH2 (labeling ratio 1:1), also called CF568-labeled CD4-Nb1; CD4-Nbs-CF568) VHH: EVQLVESGGGLVQPGGSLRLSCAASGFTFSKLAMSWHREPPGKGREWLADIDSSGDTTDYLASVKGRFTISRDNAKNTLYLQMDSLKSEDTGVYYCASREDPPGYWGQGTQVTVSS | – | – | – | – | – | binding result [16]: no binding (tested: not printed on the sheet); binding result [17]: no binding (tested: not printed on the sheet)
CD4-Nb2 (VHH, Unlabeled, expressed in E. coli) VHH: EVQLVESGGGSVQPGGSLRLSCGASGFDVDYYAIGWFRQAPGKEREGVSCIASSDGSTYYADSVKGRFTISRDNAKNTVYLQMNSLKPEDTAVYYCAADATCPYYCSGSVCYLETGMDYWGEGTLVTVSS | 0.000795 | 122000 | 6.5 | 0.73 | ~7 | Kd [18]: 6.53 nM; EC50 [4]: 0.73 nM; EC50 [19]: ~0.7 nM
